Here are results for 1 molecule from patent US20140147439A1 (NVIP, published 2014).

The target in this test is T1, human complement C1q (from human serum) (human, UniProt P02745 23-245; P02746 28-253; P02747 29-245).
T1 construct: Native C1q in human serum diluted 1/100
Briefly: ELISA: antibody captured on NGF-coated plate, incubated with human serum, bound C1q detected with sheep anti-C1q-HRP, absorbance at 450 nm. A general note: An ELISA detects its analyte on a solid surface through an enzyme-linked reagent.

T1 sequence (P02745 23-245 limits assumed, chain 1 of 3): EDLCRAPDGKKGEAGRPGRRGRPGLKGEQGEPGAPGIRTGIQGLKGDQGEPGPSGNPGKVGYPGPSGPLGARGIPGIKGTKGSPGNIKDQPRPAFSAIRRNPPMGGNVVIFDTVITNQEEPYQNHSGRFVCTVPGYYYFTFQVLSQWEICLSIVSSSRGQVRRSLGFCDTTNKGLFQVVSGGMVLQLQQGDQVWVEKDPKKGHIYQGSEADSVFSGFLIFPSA
T1 sequence (P02746 28-253 limits assumed, chain 2 of 3): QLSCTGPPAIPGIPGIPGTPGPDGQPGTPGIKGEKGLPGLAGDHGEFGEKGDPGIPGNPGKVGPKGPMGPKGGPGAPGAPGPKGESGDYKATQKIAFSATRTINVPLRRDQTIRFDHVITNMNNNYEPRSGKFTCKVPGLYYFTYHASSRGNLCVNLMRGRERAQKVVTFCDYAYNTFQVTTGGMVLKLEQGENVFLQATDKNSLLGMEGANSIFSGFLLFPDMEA
T1 sequence (P02747 29-245 limits assumed, chain 3 of 3): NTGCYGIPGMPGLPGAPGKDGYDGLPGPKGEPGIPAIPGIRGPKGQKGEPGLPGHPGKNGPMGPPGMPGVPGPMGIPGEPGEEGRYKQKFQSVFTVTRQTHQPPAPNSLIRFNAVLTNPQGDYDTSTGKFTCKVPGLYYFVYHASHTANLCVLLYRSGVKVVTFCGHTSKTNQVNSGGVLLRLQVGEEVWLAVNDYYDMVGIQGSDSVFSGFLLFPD
Experimental: The plates were washed and then incubated with human serum and bound complement C1q was measured by binding of anti-human C1q polyclonal antibody HRP and developed as above.
Plates were coated with 100 μl/well of 5 μg/ml mouse NGF and blocked with 5% BSA/PBS. […] The plates were washed and incubated for 1 hour at room temperature with 100 μl/well of human serum diluted 1/100 in veronal buffered saline containing 0.5 mM MgCl₂, 2 mM CaCl₂, 0.05% Tween-20, 0.1% gelatin and 0.5% BSA. After washing, plates were incubated with 100 μl of a 1/800 dilution of sheep anti-C1q-HRP (Serotec) in PBS/1% BSA. After washing, plates were developed by the addition of 100 μl TMB substrate (Thermo Scientific). Development was stopped by the addition of 100 μl of 2NH₂SO₄ and absorbance read at 450 nm.

B1: felinised anti-NGF monoclonal antibody (heavy chain SEQ ID NO:6, light chain SEQ ID NO:5) (antibody, IgG2)
heavy: QVQLVESGGDLVQPGGSLRLTCAASGFSLTNNNVNWVRQAPGKGLEWMGGVWAGGATDYNSALKGRFTISRDNAKNTLYLQMNSLKTEDTATYYCARDGGYSSSTLYAMDAWGQGTLVTVSSASTTAPSVFPLAPSCGTTSGATVALACLVLGYFPEPVTVSWNSGALTSGVHTFPAVLQASGLYSLSSMVTVPSSRWLSDTFTCNVAHPPSNTKVDKTVRKTDHPPGPKPCDCPKCPPPEMLGGPSIFIFPPKPKDTLSISRTPEVTCLVVDLGPDDSDVQITWFVDNTQVYTAKTSPREEQFNSTYRVVSVLPILHQDWLKGKEFKCKVNSKSLPSPIERTISKAKGQPHEPQVYVLPPAQEELSRNKVSVTCLIKSFHPPDIAVEWEITGQPEPENNYRTTPPQLDSDGTYFVYSKLSVDRSHWQRGNTYTCSVSHEALHSHHTQKSLTQSPGK
light: DIVMTQTPLSLSVTPGEPASISCRASEDIYNALAWYLQKPGQSPRRLIYNTDTLHTGVPDRFSGSGSGTDFTLRISRVEADDVGVYFCQHYFHYPRTFGPGTKLEIKRSDAQPSVFLFQPSLDELHTGSASIVCILNDFYPKEVNVKWKVDGVVQTKASKESTTEQNSKDSTYSLSSTLTMSRTEYQSHEKFSCEVTHKSLASTLVKSFNRSECQRE
notes: Felinised alphaD11 variable domains with a feline HC2 (IgG2) heavy chain constant region and a feline kappa constant domain; also called felinised antibody; felinised anti-NGF MAb
Consider B1, for which the binding result is on record as “no binding (tested: human serum diluted 1/100)”.
